Test results: article PMC11822394, “CsNAC17 enhances resistance to Colletotrichum gloeosporioides by interacting with CsbHLH62 in Camellia sinensis”

T1: CsNAC17 (Camellia sinensis, UniProt A0A4S4ETT7 1-357)
T1 chain: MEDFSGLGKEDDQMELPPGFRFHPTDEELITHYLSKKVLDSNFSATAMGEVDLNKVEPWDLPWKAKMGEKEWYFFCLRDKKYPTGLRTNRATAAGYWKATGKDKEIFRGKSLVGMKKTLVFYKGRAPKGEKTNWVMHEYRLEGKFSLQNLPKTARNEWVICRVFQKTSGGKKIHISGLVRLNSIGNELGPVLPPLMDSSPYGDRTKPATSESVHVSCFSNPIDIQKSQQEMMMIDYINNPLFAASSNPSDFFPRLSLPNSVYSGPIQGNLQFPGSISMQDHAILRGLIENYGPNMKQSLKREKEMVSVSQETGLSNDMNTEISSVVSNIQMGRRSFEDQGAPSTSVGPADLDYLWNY

B1: ProCsRPM1-CACG probe (dsDNA)
DNA 1: CTACGTAGCACGGTCCTATT
DNA 2: AATAGGACCGTGCTACGTAG
B2: ProCsRPM1-CATGTG probe (dsDNA)
DNA 1: TTTTAGACATGTGTTTCCCA
DNA 2: TGGGAAACACATGTCTAAAA

Target: T1, CsNAC17
Assay: EMSA; LightShift Chemiluminescent EMSA Kit; buffer, salt, pH and temperature not stated
Details: protein: recombinant; tags: GST (pGEX-6p-1); chain copies: 0; label: biotin (hot probe); blunt

Binder | binding result
B1 | binds
B2 | binds
